Results as given in patent publication US20180282404A1 (Hoffmann-La Roche, published 2018).

Tests used:
[1] = molecular target: T1, Human angiopoietin-2 (ANG-2) with His-tag (human, UniProt O15123 19-496); test: ANGPT2/Tie2 interaction ELISA: antibody titrated with 0.2 ug/ml huAngiopoietin-2 on coated Tie2 (printed as 'inhibitory concentrations')
T1 construct: The assays used full-length Angiopoietin-2-His, either R&D Systems #623-AN or in-house material; also called hANG-2; hAng-2
T1 sequence: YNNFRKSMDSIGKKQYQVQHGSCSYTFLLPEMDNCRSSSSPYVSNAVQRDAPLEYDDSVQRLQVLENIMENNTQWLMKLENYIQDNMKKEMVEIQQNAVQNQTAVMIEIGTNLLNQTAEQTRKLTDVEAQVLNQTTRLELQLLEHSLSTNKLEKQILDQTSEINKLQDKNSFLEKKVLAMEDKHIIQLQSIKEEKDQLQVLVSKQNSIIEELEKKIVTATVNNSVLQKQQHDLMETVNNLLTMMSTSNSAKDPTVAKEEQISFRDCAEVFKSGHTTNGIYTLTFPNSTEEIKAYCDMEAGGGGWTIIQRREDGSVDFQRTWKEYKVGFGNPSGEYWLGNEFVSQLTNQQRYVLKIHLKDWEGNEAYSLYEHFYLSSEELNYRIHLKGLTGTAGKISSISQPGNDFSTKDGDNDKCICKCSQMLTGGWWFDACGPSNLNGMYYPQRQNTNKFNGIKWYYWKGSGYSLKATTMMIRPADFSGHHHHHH
Method: The interaction ELISA was performed on 384 well microtiter plates (MicroCoat, DE, Cat. No. 464718) at RT. After each incubation step plates were washed 3 times with PBST. ELISA plates were coated with 0.5 μg/ml Tie-2 protein (R&D Systems, UK, Cat. No. 313-TI) for at least 2 hours (h). Thereafter the wells were blocked with PBS supplemented with 0.2% Tween® 20 and 2% BSA (Roche Diagnostics GmbH, DE) for 1 h. […] After washing a mixture of 0.5 μg/ml biotinylated anti-Angiopoietin-2 clone BAM0981 (R&D Systems, UK) and 1:3000 diluted streptavidin HRP (Roche Diagnostics GmbH, DE, Cat. No. 11089153001) was added for 1 h. Thereafter the plates were washed 6 times with PBST. Plates were developed with freshly prepared ABTS reagent (Roche Diagnostics GmbH, DE, buffer #204 530 001, tablets #11 112 422 001) for 30 minutes at RT. Absorbance was measured at 405 nm.
(§1) 384-well Maxisorp® plates (Nunc) were coated with 0.5 μg/ml human Tie2 (R&D Systems, UK, Cat. No. 313-TI or in house produced material) for 2 h at room temperature and blocked with PBS supplemented with 0.2% Tween® 20 and 2% BSA (Roche Diagnostics GmbH, DE) for 1 h at room temperature under shaking. […] After washing a mixture of 0.5 μg/ml biotinylated anti-Angiopoietin-1/2 clone (R&D Systems #BAF923, BAM0981 R&D Systems, UK) and 1:3000 diluted streptavidin HRP (Roche Diagnostics GmbH, DE, Cat. No. 11089153001) was added for 1 h. Thereafter the plates were washed 6 times with PBST. Plates were developed with freshly prepared ABTS reagent (Roche Diagnostics GmbH, DE, buffer #204 530 001, tablets #11 112 422 001) for 30 minutes at RT. Absorbance was measured at 405 nm.

[2] = molecular target: T2, Human angiopoietin-1 (ANG-1) with His-tag (human, UniProt Q15389 16-498); test: ANG-1 binding ELISA, human ANG-1 coated, antibody titrated
T2 construct: The assays used Angiopoietin-1-His, either R&D Systems #923-AN or in-house material; also called hANG-1; huAng-1
T2 sequence: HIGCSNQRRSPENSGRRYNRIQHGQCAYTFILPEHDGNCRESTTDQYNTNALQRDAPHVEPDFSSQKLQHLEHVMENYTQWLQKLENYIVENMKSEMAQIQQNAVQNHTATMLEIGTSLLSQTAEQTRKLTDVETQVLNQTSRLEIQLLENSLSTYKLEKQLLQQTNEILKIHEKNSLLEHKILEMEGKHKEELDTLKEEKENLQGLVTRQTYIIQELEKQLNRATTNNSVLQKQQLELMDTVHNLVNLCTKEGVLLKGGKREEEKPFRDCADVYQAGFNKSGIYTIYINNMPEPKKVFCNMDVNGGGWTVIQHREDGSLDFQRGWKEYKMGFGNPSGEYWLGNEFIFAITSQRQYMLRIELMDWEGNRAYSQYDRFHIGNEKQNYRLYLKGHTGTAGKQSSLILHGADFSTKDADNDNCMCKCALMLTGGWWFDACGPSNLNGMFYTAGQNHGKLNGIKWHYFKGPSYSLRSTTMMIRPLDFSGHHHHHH
Method: (§2) The wells were washed three times with 300 μl PBST (0.2% Tween® 20) and blocked with 200 μl 2% BSA 0.1% Tween® 20 for 30 min at room temperature and subsequently washed three times with 300 μl PBST. […] The wells were washed three times with 300 μl PBST (0.2% Tween® 20) and bound antibody was detected with 100 μL/well 0.1 μg/ml F(ab′) POD (Biozol Cat. No. 206005) in 2% BSA 0.1% Tween® 20 as detection antibody for 1 h on a microtiterplate shaker at room temperature. Unbound detection antibody was washed away three times with 300 μL/well PBST and the bound detection antibody was detected by addition of 100 μL ABTS/well. Determination of absorbance was performed on a Tecan Fluor Spectrometer at a measurement wavelength of 405 nm (reference wavelength 492 nm).
(§3) Briefly, the ELISA-type assay is based on the immobilization of human wild-type Angiopoietin-1 or -2 in a microtiter plate.

[3] = molecular target: T1, Human angiopoietin-2 (ANG-2) with …; test: Biacore SPR, antibody captured by anti-Fc, ANG-2-His in solution, 1:1 model, average of Experiments 1 + 2
Method: (§4) Biacore® T100 Evaluation Software version 1.1.1 was used for analysis of sensorgrams and for calculation of affinity data.
(§5) The affinity for this interaction is determined with the assumption of a 1:1 interaction. Details of this experiment can be found in the general methods section.

[4] = molecular target: T1, Human angiopoietin-2 (ANG-2) with …; test: Biacore SPR, antibody captured by anti-Fc, ANG-2-His in solution, 1:1 model, Experiment 1
Method: as §4, §5

[5] = molecular target: T1, Human angiopoietin-2 (ANG-2) with …; test: cell-based or functional assay
[6] = molecular target: T1, Human angiopoietin-2 (ANG-2) with …; test: Biacore SPR, antibody captured by anti-Fc, ANG-2-His in solution, 1:1 model, Experiment 2
Method: as §4, §5

[7] = molecular target: T1, Human angiopoietin-2 (ANG-2) with …; test: ANG-2 binding ELISA, human ANG-2 coated, antibody titrated
Method: as §2, §3

[8] = molecular target: T2, Human angiopoietin-1 (ANG-1) with …; test: ANGPT1/Tie2 interaction ELISA: antibody titrated with 0.2 ug/ml huAngiopoietin-1 on coated Tie2 (printed as 'inhibitory concentrations')
Method: After each incubation step plates were washed 3 times with PBST. […] Thereafter the wells were blocked with PBS supplemented with 0.2% Tween® 20 and 2% BSA (Roche Diagnostics GmbH, DE) for 1 h. […] Thereafter the plates were washed 6 times with PBST. Plates were developed with freshly prepared ABTS reagent (Roche Diagnostics GmbH, DE, buffer #204 530 001, tablets #11 112 422 001) for 30 minutes at RT. Absorbance was measured at 405 nm.
as §1

[9] = molecular target: T2, Human angiopoietin-1 (ANG-1) with …; test: cell-based or functional assay
[10] = molecular target: T2, Human angiopoietin-1 (ANG-1) with …; test: SPR (Biacore): huAng-1 amine-coupled on a CM5 chip (appr. 20000 RU), BSA on the reference cell, antibody 100 nM in HBS-P injected for 3 min, 3 min dissociation
Method: The protein was injected for 20 min in sodium acetate pH 4.5 at 10 μg/ml at a flow rate of 5 μl/min. […] On the reference flow cell BSA was immobilized under the same conditions. The antibodies were diluted in HBS-P to 100 nM and injected for 3 min (association phase). After washing with running buffer for 3 min (dissociation phase), the surface was regenerated by injecting 10 mM sodium hydroxide for 1 min at 5 μl/min.

B1: <ANG-2> Ang2i_LC06 (antibody, V domains shown)
VH: not shown
VL: QPGLTQPPSVSVAPGQTARITCGGNNIGSKSVHWYQQKPGQAPVLVVYDDSDRPSGIPERFSGSNSGNTATLTISRVEAGDEADYYCQVWDSSSDHYVFGTGTKVTVLG
notes: Only the variable domains are tied to this antibody
IC50 [1]: 100 pM | EC50 [2]: > 8 µg/mL | Kd [3]: 16 pM | Kd [4]: 11 pM | koff [4]: 7.16e-05 s⁻¹ | IC50 of ANGPT2 stimulated Tie2 phosphorylation (HEK293-Tie2 clone22, P-Tie2 sandwich ELISA) [5]: ~0.508 µg/mL | Kd [6]: 21 pM | koff [6]: 0.000114 s⁻¹ | EC50 [7]: 0.084 µg/mL

B2: <ANG-2> Ang2i_LC07 (antibody, V domains shown)
VH: not shown
VL: QPVLTQSPSVSVAPGETARVACGGNFIGGKSVHWYQQKPGQAPVLVIYDDSERPSGIPERISGSNSGNTATLIITRAEAGDEADYHCQVWDSDSDQGVFGTGTKLTVLG
notes: as for B1
EC50 [2]: > 8 µg/mL | EC50 [7]: 3.01 µg/mL

B3: human anti-ANG-2 antibody <ANG-2> antibody Mab536 (antibody, V domains shown)
VH: EVQLVQSGGGVVQPGRSLRLSCAASGFTFSSYGMHWVRQAPGKGLEWVSYISSSGSTIYYADSVKGRFTISRDNAKNSLYLQMNSLRAEDTAVYYCARDLLDYDILTGYGYWGQGTLVTVSS
VL: not shown
IC50 [1]: 150 pM | EC50 [2]: 2.54 µg/mL | Kd [3]: 29 pM | Kd [4]: 29 pM | koff [4]: 0.000144 s⁻¹ | Kd [6]: 29 pM | koff [6]: 0.000125 s⁻¹ | EC50 [7]: 0.133 µg/mL

B4: <ANG-2> Ang2k_LC08 (antibody, V domains shown)
VH: QVQLVESGGGVVQPGGSLRLSCAASGFTFSSYGMHWVRQAPGKGLEWVAVISYDGSNKYYADSVKGRFTISRDNSKNTLYLQMNSLRAEDTAVYYCAKPTLDIYMGYYYGMDVWGQGTTVTVSS
VL: QPVLTQPPSASGAPGQRVTISCSGFASNIGSNSVNWYQQVPGTAPKLLIYNNDQRPSGVPDRFSGSRSGTSASLAISGLQSEDEADYYCAAWDDSLNGPVFGGGTKLTVLG
notes: as for B1
IC50 [1]: 170 pM | EC50 [2]: 4.04 µg/mL | Kd [3]: 22 pM | Kd [4]: 16 pM | koff [4]: 0.000161 s⁻¹ | IC50 [8]: 11000 pM | IC50 of ANGPT1 stimulated Tie2 phosphorylation (HEK293-Tie2 clone22, P-Tie2 sandwich ELISA) [9]: ~0.391 µg/mL | IC50 of ANGPT2 stimulated Tie2 phosphorylation (HEK293-Tie2 clone22, P-Tie2 sandwich ELISA) [5]: ~0.499 µg/mL | Kd [6]: 27 pM | koff [6]: 0.000228 s⁻¹ | EC50 [7]: 0.105 µg/mL

B5: <ANG-2> Ang2i_LC10 (antibody, V domains shown)
VH: not shown
VL: QPPSVSVAPGQTARITCGGNNIGSKSVHWYQQKPGQAPVLVVYDDSDRPSGIPERFSGSNSGNTATLTISRVEAGDEADYYCQVWDSSSDHWVFGGGTKLTVLG
binding result [10]: no binding (tested: 100 nM)
